Results reported in article PMC6831629.

Target: myc-tagged Trpc1 (transient receptor potential canonical subfamily member 1) (X. laevis)
Experiment: co-IP; mRNAs co-injected into 4-cell stage X. laevis embryos (200 pg/cell each); 12 animal caps (stage 8-9) lysed in SOFT buffer (50 mM Tris pH 7.4, 100 mM NaCl, 5 mM EDTA, 0.05% NP40, 1% Triton X100); 120 µg protein precipitated with anti-HA or anti-Myc antibodies and A/G protein beads; blots with anti-HA and anti-Myc; animal caps with or without 2 µg/mL noggin for 15 min before lysis

fold change of the co-immunoprecipitated fraction with noggin against without noggin: 1.64 fold
Substance: HA-tagged BMP receptor type II, full length
